Article doi:10.1101/370411

Target: Porcine circovirus 2 (PCV2) virus like particle, Baculovirus expressed capsid protein (Porcine circovirus 2)
Test: cryo-EM structure

“Porcine circovirus 2 (PCV2) virus like particle, Baculovirus expressed capsid protein (natural protein)” gave a stoichiometry N of 60.
